Laboratory results published in patent US20130059781A1 (Novo Nordisk, published 2013).
Numbered stars: 1 amine (or outer) side, 2 acyl side, 3 side chain; on linkers, the order of the positions; unused ones are H or OH. Side chains are listed from the residue outwards. Ends that are not written are not given here. * marks the point of attachment. C18 diacid = O=C(O)CCCCCCCCCCCCCCCCC(=O)*; γGlu = O=C(O)[C@H](CCC(=O)[*:2])N[*:1]; AEEA = NCCOCCOCC(=O)O

B1: N-α-#-[Leu15] Gastrin-17 (13-17) (peptide)
peptide: {C18 diacid-γGlu-AEEA-AEEA}-GWLDF-NH2
SMILES: CC(C)C[C@H](NC(=O)[C@H](Cc1c[nH]c2ccccc12)NC(=O)CNC(=O)COCCOCCNC(=O)COCCOCCNC(=O)CC[C@H](NC(=O)CCCCCCCCCCCCCCCCC(=O)O)C(=O)O)C(=O)N[C@@H](CC(=O)O)C(=O)N[C@@H](Cc1ccccc1)C(N)=O
B2: N-α-#-[Leu15] Gastrin-17 (14-17) (peptide)
peptide: {C18 diacid-γGlu-AEEA-AEEA}-WLDF-NH2
SMILES: CC(C)C[C@H](NC(=O)[C@H](Cc1c[nH]c2ccccc12)NC(=O)COCCOCCNC(=O)COCCOCCNC(=O)CC[C@H](NC(=O)CCCCCCCCCCCCCCCCC(=O)O)C(=O)O)C(=O)N[C@@H](CC(=O)O)C(=O)N[C@@H](Cc1ccccc1)C(N)=O
B3: N-α-#-[Leu15] Gastrin-17 (15-17) (peptide)
peptide: {C18 diacid-γGlu-AEEA-AEEA}-Leu-Asp-Phe-NH2
SMILES: CC(C)C[C@H](NC(=O)COCCOCCNC(=O)COCCOCCNC(=O)CC[C@H](NC(=O)CCCCCCCCCCCCCCCCC(=O)O)C(=O)O)C(=O)N[C@@H](CC(=O)O)C(=O)N[C@@H](Cc1ccccc1)C(N)=O
B4: N-α-#-Gastrin-17 (16-17) (peptide)
peptide: {C18 diacid-γGlu-AEEA-AEEA}-Asp-Phe-NH2
SMILES: NC(=O)[C@H](Cc1ccccc1)NC(=O)[C@H](CC(=O)O)NC(=O)COCCOCCNC(=O)COCCOCCNC(=O)CC[C@H](NC(=O)CCCCCCCCCCCCCCCCC(=O)O)C(=O)O

target: CCK2 receptor (gastrin receptor); assay: cell-based or functional assay

Row | Binder | Relative Receptor Potency
1 | QGPWLEEEEEAYGWLDF-NH2 (ends and bridges not checked) [[Leu15] Gastrin-17] | 100
2 | {C18 diacid-γGlu-AEEA-AEEA}-QGPWLEEEEEAYGWLDF-NH2 (ends and bridges not checked) [N-α-#-[Leu15] Gastrin-17] | 57
3 | QGK([AEEA-AEEA-γGlu-C18 diacid])WLEEEEEAYGWLDF-NH2 (ends and bridges not checked) [[Lys3(N-ε-#),Leu15] Gastrin-17] | 60
4 | QGPK([AEEA-AEEA-γGlu-C18 diacid])LEEEEEAYGWLDF-NH2 (ends and bridges not checked) [[Lys4(N-ε-#),Leu15] Gastrin-17] | 30
5 | QGPWLK([AEEA-AEEA-γGlu-C18 diacid])EEEEAYGWLDF-NH2 (ends and bridges not checked) [[Lys6(N-ε-#),Leu15] Gastrin-17] | 40
6 | QGPWLEEEEEAK([AEEA-AEEA-γGlu-C18 diacid])GWLDF-NH2 (ends and bridges not checked) [[Lys12(N-ε-#),Leu15] Gastrin-17] | 6
7 | QGPWLEEEEEAYK([AEEA-AEEA-γGlu-C18 diacid])WLDF-NH2 (ends and bridges not checked) [[Lys13(N-ε-#),Leu15] Gastrin-17] | 5
8 | QGPWLEEEEEAYGK([AEEA-AEEA-γGlu-C18 diacid])LDF-NH2 (ends and bridges not checked) [[Lys14(N-ε-#),Leu15] Gastrin-17] | 0
9 | QGPWLEEEEEAYGWK([AEEA-AEEA-γGlu-C18 diacid])DF-NH2 (ends and bridges not checked) [[Lys15(N-ε-#)] Gastrin-17] | 0
10 | QGPWLEEEEEAYGWLK([AEEA-AEEA-γGlu-C18 diacid])F-NH2 (ends and bridges not checked) [[Lys16(N-ε-#),Leu15] Gastrin-17] | 0
11 | QGPWLEEEEEAYGWLDK([AEEA-AEEA-γGlu-C18 diacid])-NH2 (ends and bridges not checked) [[Lys17(N-ε-#), Leu 15] Gastrin-17] | 0

target: CCK2 receptor (gastrin receptor); assay: cell-based or functional assay; remark: another data set of the same source

Row | Binder | Relative Receptor Potency
12 | QGPWLEEEEEAYGWLDF-NH2 (ends and bridges not checked) [[Leu15] Gastrin-17] | 100
13 | {C18 diacid-γGlu-AEEA-AEEA}-EEAYGWLDF-NH2 (ends and bridges not checked) [N-α-#-[Leu15] Gastrin-17 (9-17)] | 30
14 | {C18 diacid-γGlu-AEEA-AEEA}-YGWLDF-NH2 (ends and bridges not checked) [N-α-#-[Leu15] Gastrin-17 (12-17)] | 7
15 | B1 | 6
16 | B2 | 0
17 | B3 | 0
18 | B4 | 0
19 | {C18 diacid-γGlu-AEEA-AEEA}-QGPWLEEEEEAYGWLDF-NH2 (ends and bridges not checked) [N-α-#-[Leu15] Gastrin-17] | 76
20 | {C18 diacid-γGlu-AEEA-AEEA}-WLEEEEEAYGWLDF-NH2 (ends and bridges not checked) [N-α-#-[Leu15] Gastrin-17 (4-17)] | 58
21 | {C18 diacid-γGlu-AEEA-AEEA}-EEEEAYGWLDF-NH2 (ends and bridges not checked) [N-α-#-[Leu15] Gastrin-17 (7-17)] | 39
